Reference: the supplement of paper PMC10567573

B1: TRAF3IP2 (parent)
chain: PRPPSNPPARGTLKTSNLPEELRK

Variants of: B1
Test: protein stability index of a GFP-peptide fusion (GPS, HEK-293T) (PSI 1-6); higher = more stable
Conditions: c terminus: a fixed tail appended
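Also: lentivirally expressed fusions sorted by FACS into six bins by GFP to DsRed ratio, PSI derived from sequencing read proportions per bin multiplied by bin number.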

Protein stability index: each site, then its substitutions
L13: E 5.04; D 5.09; V 5.32; Y 4.25; I 4.6; A 4.52; T 4.82; W 4.44; M 5.06; K 4.79; N 5.15; H 4.36; Q 4.8
P19: R 4.14; G 4.36; Q 4.75; T 4.14; K 4.59; Y 3.54; E 5.1; V 4.09; M 4.47; D 4.89; L 4.43; N 4.83; F 4.28; I 4; C 4.7
G11: L 3.88; D 4.86; P 4.42; V 4.37; A 4.73; C 4.25; E 4.96; R 3.85; W 3.54; S 4.54
R10: W 4.76; C 4.58; F 4.49; L 4.96; Y 4.89; M 4.64; V 5.64; E 4.47
E21: Y 4.23; I 4.29; L 4.26; R 4.2; Q 5.04; T 4.46; P 3.62; F 3.73; M 3.06; A 4.6; K 4.26; H 3.94; D 4.71; S 3.97; C 4.19; W 3.69
S5: Y 3.84; V 4.76; K 4.21; N 4.63; L 4.19; I 4.75; F 4.45; D 3.83; M 5; Q 4.45; H 4.38; E 4.55; A 4.32; W 3.98; C 4.28
P3: F 4.13; G 4.82; D 5.07; S 4.95; V 4.79; H 4.02; L 4.5; R 4.54; Y 4.7; K 4.88; E 5.35; I 5.05; A 5.13; M 4.42; T 4.9; N 4.29
S16: M 4.7; R 4.79; W 3.47; N 4.37; A 4.41; Q 4.48; G 4.79; E 4.95; H 4.33; L 4.75; K 4.74; Y 4.48
L22: A 4.55; N 4.93; I 4.56; Q 5.39; G 4.15; K 4.97; W 4.25; P 5.15; E 5.61; R 4.82; Y 4.47; F 4.24; D 5.22; H 5.11; T 5.4; V 3.16
T12: A 4.66; Q 4.52; I 4.54; R 4.58; K 4.7; F 4.3; S 4.35; N 4.42; M 4.56; H 4.75; L 4.65; C 4.24; Y 4.78; V 4.41; G 4
A9: M 4.68; T 5.3; N 4.95; S 4.62; K 4.44; R 4.6; W 4.47; Y 4.5; V 4.31; L 4.85; I 4.65; Q 4.7; C 4.31; G 4.84
R2: C 5.19; G 5.12; Q 4.59; E 4.85; L 4.2; M 5.08; V 4.63; F 5.09; S 5.25; K 4.56
N6: I 4.62; H 5.21; D 4.8; Q 4.78; C 5.18; K 4.72; E 5.15; S 5.01; V 4.79; W 5.83; T 4.69; R 4.49; G 4.65; Y 4.99; M 5.31
P1: T 4.88; W 4.76; S 4.62; A 4.49; V 4.42; M 5.07; L 4.67; H 4.64; Y 4.46; C 4.46; Q 4.74; E 4.43; I 4.59; G 4.89; R 4.44; N 4.59; D 4.6
N17: S 4.91; C 4.29; F 4.42; G 4.82; E 5.13; I 4.55; A 5.05; Y 4.77; V 3.94; H 4.58; P 5.08; T 4.21; K 4.07; L 4.49; M 4.8; W 3.51
L18: Q 5.08; S 5.62; N 4.71; Y 5.14; H 4.8; I 4.38; F 4.72; W 4.2; A 4.92; M 4.5; G 4.96; T 4.96
P7: R 4.75; D 4.97; Y 4.05; C 4.4; W 4.02; Q 4.56; G 4.58; I 4.5; T 4.76; K 4.53; A 4.8; H 4.27; S 4.89; L 4.83; M 4.09
E20: R 4.48; M 4.14; P 4.21; G 5.51; K 4.2; L 4.1; T 4.25; A 4.41; S 4.52; I 3.44; Q 4.67; N 4.61; W 4; Y 3.95
P4: M 4.39; R 4.49; D 4.7; S 4.89; G 4.54; A 4.79; H 4.5; V 4.53; E 4.52; W 4.61; I 4.66; F 4.25
K14: C 4.76; T 5.09; L 5.17; Q 5.21; D 5.37; N 4.97; E 5.27; F 4.84; W 4.58; G 4.68; P 4.83; I 4.82; S 5.4; A 5.35; R 4.65; V 5.17; M 4.94
K24: S 4.7; Q 4.66; F 4.33; M 4.26; R 4.75; T 4.8; C 4.9; W 4.19; V 4.53; Y 3.78
P8: W 4.22; T 5.02; N 4.82; V 5.04; M 4.76; E 4.81; K 4.99; D 4.99; G 4.82; I 4.72; H 3.56; Q 5.09; R 4.43
R23: C 4.64; V 4.13; P 5.21; Y 4.47; H 4.7; M 4.31; G 4.7; S 5.16; N 5.2; I 4.39; W 3.42; Q 5.23; L 4.19; D 4.9; K 4.92; T 4.77; A 4.7
T15: H 4.99; L 4.29; W 3.67; D 5.13; I 4.14; P 4.64; Y 4.64; F 4.29; R 4.52; M 4.43; N 4.53; Q 4.48; E 4.94; A 4.22; K 4.82; G 4.95
